This passage reports abundance fitness results from the Human Domainome abundance scans (Beltran et al. 2025).

± gives the uncertainty stated by the source.

B1: Nuclear receptor subfamily 4 group A member 2, residues 260 to 336; numbered along this chain, P43354 (parent)
chain: EGLCAVCGDNAACQHYGVRTCEGCKGFFKRTVQKNAKYVCLANKNCPVDKRRRNRCQYCRFQKCLAVGMVKEVVRTD

Variants of B1 are the subject of the data set. The data set can be described thus: abundance fitness (aPCA) (normalised: wild type 0, dead -1); higher = more abundant; growth selection in yeast, the domain comes from the species named. Particulars: Homo sapiens.
For the variant EGLCAVCGDNAACQHYGVRTCEGCKSFFKRTVQKNAKYVCLANKNCPVDKRRRNRCQYCRFQKCLAVGMVKEVVRTD [G26S], the abundance fitness was -0.218 ± 0.089.
In the case of EGLCAVCGDNAACQHYGVRTCEGCKCFFKRTVQKNAKYVCLANKNCPVDKRRRNRCQYCRFQKCLAVGMVKEVVRTD [G26C] it was -0.138 ± 0.11; in that of EGLCAVCGDNAACQHYGVRTCEGCKFFFKRTVQKNAKYVCLANKNCPVDKRRRNRCQYCRFQKCLAVGMVKEVVRTD [G26F], 0.068 ± 0.18.
In the case of EGLCAVCGDNAACQHYGVRTCEGCKRFFKRTVQKNAKYVCLANKNCPVDKRRRNRCQYCRFQKCLAVGMVKEVVRTD [G26R] it was -0.174 ± 0.059; in that of EGLCAVCGDNAACQHYGVRTCEGCKQFFKRTVQKNAKYVCLANKNCPVDKRRRNRCQYCRFQKCLAVGMVKEVVRTD [G26Q], -0.171 ± 0.071.
On to EGLCAVCGDNAACQHYGVRTCEGCKEFFKRTVQKNAKYVCLANKNCPVDKRRRNRCQYCRFQKCLAVGMVKEVVRTD [G26E], for which the abundance fitness is -0.214 ± 0.15.
Take EGLCAVCGDNAACQHYGVRTCEGCKTFFKRTVQKNAKYVCLANKNCPVDKRRRNRCQYCRFQKCLAVGMVKEVVRTD [G26T]: the abundance fitness was 0.051 ± 0.13.
In the case of EGLCAVCGDNAACQHYGVRTCEGCKWFFKRTVQKNAKYVCLANKNCPVDKRRRNRCQYCRFQKCLAVGMVKEVVRTD [G26W] it was -0.388 ± 0.091; in that of EGLCAVCGDNAACQHYGVRTCEGCKAFFKRTVQKNAKYVCLANKNCPVDKRRRNRCQYCRFQKCLAVGMVKEVVRTD [G26A], -0.079 ± 0.088.
The same measure for EGLCAVCGDNAACQHYGVRTCEGCKDFFKRTVQKNAKYVCLANKNCPVDKRRRNRCQYCRFQKCLAVGMVKEVVRTD [G26D]: -0.062 ± 0.36; for EGLCAVCGDNAACQHYGVRTCEGCKKFFKRTVQKNAKYVCLANKNCPVDKRRRNRCQYCRFQKCLAVGMVKEVVRTD [G26K]: -0.352 ± 0.14.
In the case of EGLCAVCGDNAACQHYGVRTCEGCKVFFKRTVQKNAKYVCLANKNCPVDKRRRNRCQYCRFQKCLAVGMVKEVVRTD [G26V] it was -0.191 ± 0.096; in that of EGLCAVCGDNAACQHYGVRTCEGCKLFFKRTVQKNAKYVCLANKNCPVDKRRRNRCQYCRFQKCLAVGMVKEVVRTD [G26L], -0.137 ± 0.072; in that of EGLCAVCGDNAACQHYGVRTCEGCKHFFKRTVQKNAKYVCLANKNCPVDKRRRNRCQYCRFQKCLAVGMVKEVVRTD [G26H], 0.16 ± 0.15.
For EGLCAVCGDNAACQHYGVRTCEGCKMFFKRTVQKNAKYVCLANKNCPVDKRRRNRCQYCRFQKCLAVGMVKEVVRTD [G26M], the abundance fitness was -0.27 ± 0.18.
As for EGLCAVCGDNAACQHYGVRTCWGCKGFFKRTVQKNAKYVCLANKNCPVDKRRRNRCQYCRFQKCLAVGMVKEVVRTD [E22W], the abundance fitness was -0.208 ± 0.092.
The same measure for EGLCAVCGDNAACQHYGVRTCYGCKGFFKRTVQKNAKYVCLANKNCPVDKRRRNRCQYCRFQKCLAVGMVKEVVRTD [E22Y]: 0.06 ± 0.25; for EGLCAVCGDNAACQHYGVRTCEGCKGHFKRTVQKNAKYVCLANKNCPVDKRRRNRCQYCRFQKCLAVGMVKEVVRTD [F27H]: -0.624 ± 0.36.
For EGLCAVCGDNAACQHYGVRTCEGCKGLFKRTVQKNAKYVCLANKNCPVDKRRRNRCQYCRFQKCLAVGMVKEVVRTD [F27L], the abundance fitness was -0.431 ± 0.085.
EGLCAVCGDNAACQHYGVRTCEGCKGWFKRTVQKNAKYVCLANKNCPVDKRRRNRCQYCRFQKCLAVGMVKEVVRTD [F27W]: the abundance fitness was -0.126 ± 0.071.
As to EGLCAVCGDNAACQHYGVRTCEGCKGKFKRTVQKNAKYVCLANKNCPVDKRRRNRCQYCRFQKCLAVGMVKEVVRTD [F27K], the abundance fitness was -0.691 ± 0.25.
As for EGLCAVCGDNAACQHYGVRTCEGCKGGFKRTVQKNAKYVCLANKNCPVDKRRRNRCQYCRFQKCLAVGMVKEVVRTD [F27G], the abundance fitness was -0.99 ± 0.17.
For EGLCAVCGDNAACQHYGVRTCEGCKGSFKRTVQKNAKYVCLANKNCPVDKRRRNRCQYCRFQKCLAVGMVKEVVRTD [F27S], the abundance fitness is -1.12 ± 0.29.
In the case of EGLCAVCGDNAACQHYGVRTCEGCKGVFKRTVQKNAKYVCLANKNCPVDKRRRNRCQYCRFQKCLAVGMVKEVVRTD [F27V], the abundance fitness is -0.934 ± 0.18.
Take EGLCAVCGDNAACQHYGVRTCEGCKGRFKRTVQKNAKYVCLANKNCPVDKRRRNRCQYCRFQKCLAVGMVKEVVRTD [F27R]: the abundance fitness is -0.975 ± 0.15.
In the case of EGLCAVCGDNAACQHYGVRTCEGCKGEFKRTVQKNAKYVCLANKNCPVDKRRRNRCQYCRFQKCLAVGMVKEVVRTD [F27E] it was -0.959 ± 0.33.
Consider EGLCAVCGDNAACQHYGVRTCEGCKGTFKRTVQKNAKYVCLANKNCPVDKRRRNRCQYCRFQKCLAVGMVKEVVRTD [F27T], for which the abundance fitness was -1.04 ± 0.33.
In the case of EGLCAVCGDNAACQHYGVRTCEGCKGMFKRTVQKNAKYVCLANKNCPVDKRRRNRCQYCRFQKCLAVGMVKEVVRTD [F27M] it was -0.584 ± 0.2.
Turning to EGLCAVCGDNAACQHYGVRTCEGCKGIFKRTVQKNAKYVCLANKNCPVDKRRRNRCQYCRFQKCLAVGMVKEVVRTD [F27I], the abundance fitness was -0.705 ± 0.47.
The same measure for EGLCAVCGDNAACQHYGVRTCEGCKGAFKRTVQKNAKYVCLANKNCPVDKRRRNRCQYCRFQKCLAVGMVKEVVRTD [F27A]: -1.06 ± 0.25; for EGLCAVCGDNAACQHYGVRTCEGCKGYFKRTVQKNAKYVCLANKNCPVDKRRRNRCQYCRFQKCLAVGMVKEVVRTD [F27Y]: -0.846 ± 0.33.
For the variant EGLCAVCGDNAACQHYGVRTCEGCKGFIKRTVQKNAKYVCLANKNCPVDKRRRNRCQYCRFQKCLAVGMVKEVVRTD [F28I], the abundance fitness was -0.262 ± 0.18.
For EGLCAVCGDNAACQHYGVRTCEGCKGFRKRTVQKNAKYVCLANKNCPVDKRRRNRCQYCRFQKCLAVGMVKEVVRTD [F28R], the abundance fitness was -0.75 ± 0.11.
For EGLCAVCGDNAACQHYGVRTCEGCKGFPKRTVQKNAKYVCLANKNCPVDKRRRNRCQYCRFQKCLAVGMVKEVVRTD [F28P], the abundance fitness is -1.06 ± 0.35.
The same measure for EGLCAVCGDNAACQHYGVRTCEGCKGFEKRTVQKNAKYVCLANKNCPVDKRRRNRCQYCRFQKCLAVGMVKEVVRTD [F28E]: -1.29 ± 0.45.
